This assay concerns the target Recombinant human Rac1 (Q2-L177), His-tagged (human, UniProt P63000 2-177). Briefly: AlphaScreen or HTRF. A general note: Alpha assays give light when donor and acceptor beads are brought close together.

B1: Truncated recombinant human Tiam1 (R1033-E1406), FLAG-tagged (domain or fragment)
chain: RQLSDADKLRKVICELLETERTYVKDLNCLMERYLKPLQKETFLTQDELDVLFGNLTEMVEFQVEFLKTLEDGVRLVPDLEKLEKVDQFKKVLFSLGGSFLYYADRFKLYSAFCASHTKVPKVLVKAKTDTAFKAFLDAQNPKQQHSSTLESYLIKPIQRILKYPLLLRELFALTDAESEEHYHLDVAIKTMNKVASHINEMQKIHEEFGAVFDQLIAEQTGEKKEVADLSMGDLLLHTTVIWLNPPASLGKWKKEPELAAFVFKTAVVLVYKDGSKQKKKLVGSHRLSIYEDWDPFRFRHMIPTEALQVRALASADAEANAVCEIVHVKSESEGRPERVFHLCCSSPESRKDFLKAVHSILRDKHRRQLLKTE
In the case of B1, the binding result is on record as “binds”.

(Values after doi:10.1101/2022.03.14.484294 (bioRxiv, 2022).)
